Data: doi:10.1101/2019.12.26.888982 (bioRxiv, 2019)

Molecular target: the molecule itself
Test: cryo-EM structure

| Protein | binding result |
| --- | --- |
| Human TRPA1 (MBP-TRPA1) modified with BODIPY-iodoacetamide (BIA) (natural protein, BODIPY-IA (BIA) covalent adduct at Cys621) KRSLRKMWRPGEKKEPQGVVYEDVPDDTEDFKESLKVVFEGSAYGLQNFNKQKKLKRCDDMDTFFLHYAAAEGQIELMEKITRDSSLEVLHEMDDYGNTPLHCAVEKNQIESVKFLLSRGANPNLRNFNMMAPLHIAVQGMNNEVMKVLLEHRTIDVNLEGENGNTAVIIACTTNNSEALQILLKKGAKPCKSNKWGCFPIHQAAFSGSKECMEIILRFGEEHGYSRQLHINFMNNGKATPLHLAVQNGDLEMIKMCLDNGAQIDPVEKGRCTAIHFAATQGATEIVKLMISSYSGSVDIVNTTDGCHETMLHRASLFDHHELADYLISVGADINKIDSEGRSPLILATASASWNIVNLLLSKGAQVDIKDNFGRNFLHLTVQQPYGLKNLRPEFMQMQQIKELVMDEDNDGCTPLHYACRQGGPGSVNNLLGFNVSIHSKSKDKKSPLHFAASYGRINTCQRLLQDISDTRLLNEGDLHGMTPLHLAAKNGHDKVVQLLLKKGALFLSDHNGWTALHHASMGGYTQTMKVILDTNLKCTDRLDEDGNTALHFAAREGHAKAVALLLSHNADIVLNKQQASFLHLALHNKRKEVVLTIIRSKRWDECLKIFSHNSPGNKCPITEMIEYLPECMKVLLDFCMLHSTEDKSCRDYYIEYNFKYLQCPLEFTKKTPTQDVIYEPLTALNAMVQNNRIELLNHPVCKEYLLMKWLAYGFRAHMMNLGSYCLGLIPMTILVVNIKPGMAFNSTGIINETSDHSEILDTTNSYLIKTCMILVFLSSIFGYCKEAGQIFQQKRNYFMDISNVLEWIIYTTGIIFVLPLFVEIPAHLQWQCGAIAVYFYWMNFLLYLQRFENCGIFIVMLEVILKTLLRSTVVFIFLLLAFGLSFYILLNLQDPFSSPLLSIIQTFSMMLGDINYRESFLEPYLRNELAHPVLSFAQLVSFTIFVPIVLMNLLIGLAVGDIAEVQKHASLKRIAMQVELHTSLEKKLPLWFLRKVDQKSTIVYPNKPRSGGMLFHIFCFLFCTGEIRQEIPNADKSLEMEILKQKYRLKDLTFLLEKQHELIKLIIQKMEIISETEDDDSHCSFQDRFKKEQMEQRNSRWNTVLRAVKAKTHHLEP | binds |
| Human TRPA1 (N-terminal-tagged MBP-TRPA1), unmodified (apo or with the antagonist A-967079) (natural protein) MKRSLRKMWRPGEKKEPQGVVYEDVPDDTEDFKESLKVVFEGSAYGLQNFNKQKKLKRCDDMDTFFLHYAAAEGQIELMEKITRDSSLEVLHEMDDYGNTPLHCAVEKNQIESVKFLLSRGANPNLRNFNMMAPLHIAVQGMNNEVMKVLLEHRTIDVNLEGENGNTAVIIACTTNNSEALQILLKKGAKPCKSNKWGCFPIHQAAFSGSKECMEIILRFGEEHGYSRQLHINFMNNGKATPLHLAVQNGDLEMIKMCLDNGAQIDPVEKGRCTAIHFAATQGATEIVKLMISSYSGSVDIVNTTDGCHETMLHRASLFDHHELADYLISVGADINKIDSEGRSPLILATASASWNIVNLLLSKGAQVDIKDNFGRNFLHLTVQQPYGLKNLRPEFMQMQQIKELVMDEDNDGCTPLHYACRQGGPGSVNNLLGFNVSIHSKSKDKKSPLHFAASYGRINTCQRLLQDISDTRLLNEGDLHGMTPLHLAAKNGHDKVVQLLLKKGALFLSDHNGWTALHHASMGGYTQTMKVILDTNLKCTDRLDEDGNTALHFAAREGHAKAVALLLSHNADIVLNKQQASFLHLALHNKRKEVVLTIIRSKRWDECLKIFSHNSPGNKCPITEMIEYLPECMKVLLDFCMLHSTEDKSCRDYYIEYNFKYLQCPLEFTKKTPTQDVIYEPLTALNAMVQNNRIELLNHPVCKEYLLMKWLAYGFRAHMMNLGSYCLGLIPMTILVVNIKPGMAFNSTGIINETSDHSEILDTTNSYLIKTCMILVFLSSIFGYCKEAGQIFQQKRNYFMDISNVLEWIIYTTGIIFVLPLFVEIPAHLQWQCGAIAVYFYWMNFLLYLQRFENCGIFIVMLEVILKTLLRSTVVFIFLLLAFGLSFYILLNLQDPFSSPLLSIIQTFSMMLGDINYRESFLEPYLRNELAHPVLSFAQLVSFTIFVPIVLMNLLIGLAVGDIAEVQKHASLKRIAMQVELHTSLEKKLPLWFLRKVDQKSTIVYPNKPRSGGMLFHIFCFLFCTGEIRQEIPNADKSLEMEILKQKYRLKDLTFLLEKQHELIKLIIQKMEIISETEDDDSHCSFQDRFKKEQMEQRNSRWNTVLRAVKAKTHHLEP | binds |
| Human TRPA1 (MBP-TRPA1) modified with iodoacetamide (IA), activated state (natural protein, iodoacetamide covalent adduct at Cys621; weaker density at Cys665, which may reflect partial modification) MKRSLRKMWRPGEKKEPQGVVYEDVPDDTEDFKESLKVVFEGSAYGLQNFNKQKKLKRCDDMDTFFLHYAAAEGQIELMEKITRDSSLEVLHEMDDYGNTPLHCAVEKNQIESVKFLLSRGANPNLRNFNMMAPLHIAVQGMNNEVMKVLLEHRTIDVNLEGENGNTAVIIACTTNNSEALQILLKKGAKPCKSNKWGCFPIHQAAFSGSKECMEIILRFGEEHGYSRQLHINFMNNGKATPLHLAVQNGDLEMIKMCLDNGAQIDPVEKGRCTAIHFAATQGATEIVKLMISSYSGSVDIVNTTDGCHETMLHRASLFDHHELADYLISVGADINKIDSEGRSPLILATASASWNIVNLLLSKGAQVDIKDNFGRNFLHLTVQQPYGLKNLRPEFMQMQQIKELVMDEDNDGCTPLHYACRQGGPGSVNNLLGFNVSIHSKSKDKKSPLHFAASYGRINTCQRLLQDISDTRLLNEGDLHGMTPLHLAAKNGHDKVVQLLLKKGALFLSDHNGWTALHHASMGGYTQTMKVILDTNLKCTDRLDEDGNTALHFAAREGHAKAVALLLSHNADIVLNKQQASFLHLALHNKRKEVVLTIIRSKRWDECLKIFSHNSPGNKCPITEMIEYLPECMKVLLDFCMLHSTEDKSCRDYYIEYNFKYLQCPLEFTKKTPTQDVIYEPLTALNAMVQNNRIELLNHPVCKEYLLMKWLAYGFRAHMMNLGSYCLGLIPMTILVVNIKPGMAFNSTGIINETSDHSEILDTTNSYLIKTCMILVFLSSIFGYCKEAGQIFQQKRNYFMDISNVLEWIIYTTGIIFVLPLFVEIPAHLQWQCGAIAVYFYWMNFLLYLQRFENCGIFIVMLEVILKTLLRSTVVFIFLLLAFGLSFYILLNLQDPFSSPLLSIIQTFSMMLGDINYRESFLEPYLRNELAHPVLSFAQLVSFTIFVPIVLMNLLIGLAVGDIAEVQKHASLKRIAMQVELHTSLEKKLPLWFLRKVDQKSTIVYPNKPRSGGMLFHIFCFLFCTGEIRQEIPNADKSLEMEILKQKYRLKDLTFLLEKQHELIKLIIQKMEIISETEDDDSHCSFQDRFKKEQMEQRNSRWNTVLRAVKAKTHHLEP | binds |
